{
  "source": "paper PMC8752837",
  "about": "“Structural basis of BAK activation in mitochondrial apoptosis initiation” (Nature Communications, 2022)",
  "key": {"[1]": {"target": "T1, Human BAK-∆TM-His6 (human)", "T1 sequence (Q16611 whole entry, looked up)": "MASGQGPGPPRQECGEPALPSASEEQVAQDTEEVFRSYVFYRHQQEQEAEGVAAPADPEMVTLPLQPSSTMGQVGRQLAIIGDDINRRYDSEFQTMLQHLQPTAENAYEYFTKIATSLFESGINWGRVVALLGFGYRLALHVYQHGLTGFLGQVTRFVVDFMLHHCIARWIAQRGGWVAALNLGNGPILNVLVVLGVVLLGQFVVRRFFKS", "assay": "SPR; MEAS-BAK-His6 captured (~500 RU) on Ni2+-charged NTA HisCap chip, peptides injected; 20 °C; 20 mM HEPES pH 8.0, 200 mM NaCl, 1 mM TCEP, 0.01% Tween20; 1:1 interaction model"}, "[2]": {"target": "tevBAK (residues 22–186) (human) (UniProt Q16611)", "assay": "ITC; 250 or 500 µM BID BH3 peptide injected into 20 or 50 µM tevBAK; 25 °C; 20 mM HEPES, 100 mM NaCl, 1 mM TCEP; single site binding model"}, "[3]": {"target": "T2, MEAS-BAK-His6 (C-terminus truncated recombinant human BAK containing C-terminal 6x histidine tag) (human) (UniProt Q16611)", "T2 sequence": "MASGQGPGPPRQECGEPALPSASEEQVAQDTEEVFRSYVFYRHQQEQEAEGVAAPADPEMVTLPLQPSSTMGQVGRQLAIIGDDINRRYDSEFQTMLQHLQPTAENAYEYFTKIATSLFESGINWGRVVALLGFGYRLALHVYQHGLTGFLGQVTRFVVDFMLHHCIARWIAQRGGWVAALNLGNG", "assay": "SPR; MEAS-BAK-His6 captured (~500 RU) on Ni-NTA HisCap chip, peptides injected; 20 °C; 20 mM HEPES pH 8.0, 200 mM NaCl, 1 mM TCEP, 0.01% Tween20; 1:1 interaction model"}, "[4]": {"target": "T2, MEAS-BAK-His6 (C-terminus truncated recombinant human BAK containing C-terminal 6x histidine tag) (human)", "assay": "SPR; MEAS-BAK-His6 captured (~500 RU) on Ni-NTA HisCap chip, peptides injected; 20 °C; 20 mM HEPES pH 8.0, 200 mM NaCl, 1 mM TCEP, 0.01% Tween20; 1:1 interaction model", "remark": "listed apart in the source"}, "[5]": {"target": "T2, MEAS-BAK-His6 (C-terminus truncated recombinant human BAK containing C-terminal 6x histidine tag) (human)"}, "GST-BAK (human)": {"target": "GST-BAK (human)", "assay": "fluorescence polarisation; competitive: displacement of 10 nM BID BH3 SAHB-F from 1 µM GST-BAK by peptides at 500-0.2 µM; 50 mM Tris-HCl pH 7.5, 50 mM KCl, 0.1 mg/mL BSA, 2 mM DTT, 0.005% Tween-20; 60 min at RT"}},
  "note": "Where two headings read alike, the source gives them in different places.",
  "data": [
    {"substance": "M(3)W(5) BID-like BH3 peptide", "values": [
      {"measurement": "fold higher affinity than WT BID BH3", "setting": "[1]", "result": 30, "unit": "fold"},
      {"measurement": "fold higher affinity than WT BID BH3", "setting": "[2]", "result": 30, "unit": "fold"}
    ]},
    {"substance": "W(3)W(5) BID BH3 peptide", "values": [
      {"measurement": "kon", "setting": "[3]", "result": 79100, "unit": "M⁻¹ s⁻¹"},
      {"measurement": "Kd", "setting": "[4]", "result": 0.336, "unit": "µM"},
      {"measurement": "koff", "setting": "[4]", "result": 0.0241, "unit": "s⁻¹"},
      {"measurement": "kon", "setting": "[4]", "result": 71900, "unit": "M⁻¹ s⁻¹"}
    ]},
    {"substance": "WT BID BH3 peptide", "values": [
      {"measurement": "Supplementary Table 1: liposome permeabilization EC50 (peptide dose against AUC, 50 nM BAK; data of Supplementary Figure 7c)", "setting": "[5]", "result": 0.059, "unit": "µM"},
      {"measurement": "Kd", "setting": "[4]", "result": 62.3, "unit": "µM"},
      {"measurement": "koff", "setting": "[4]", "result": 0.261, "unit": "s⁻¹"},
      {"measurement": "kon", "setting": "[4]", "result": 4190, "unit": "M⁻¹ s⁻¹"}
    ]},
    {"substance": "Y(3) BID BH3 peptide", "values": [
      {"measurement": "IC50", "setting": "GST-BAK (human)", "result": 6.2, "unit": "µM"}
    ]},
    {"substance": "Y(4) BID BH3 peptide", "values": [
      {"measurement": "IC50", "setting": "GST-BAK (human)", "result": 6.9, "unit": "µM"}
    ]}
  ]
}
